Changes are numbered by the printed parent chain.
Experiments:
[1] = molecular target: T1, A-beta fibrils (UniProt P05067 672-713, limits assumed); test: dot blot
T1 construct: Amyloid fibrils of A-beta spotted in the dot blot; also called β-amyloid

[2] = molecular target: T2, A-beta monomers (UniProt P05067 672-713, limits assumed); test: dot blot
T2 construct: also called β-amyloid monomers

[3] = molecular target: T3, IAPP fibrils (UniProt P10997 34-70); test: dot blot
T3 construct: Amyloid fibrils of IAPP spotted in the dot blot; also called islet amyloid polypeptide
T3 peptide (looked up): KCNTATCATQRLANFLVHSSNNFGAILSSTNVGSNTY

[4] = molecular target: T4, IAPP monomers (UniProt P10997 34-70); test: dot blot
T4 peptide (looked up): T3 peptide (looked up)

[5] = molecular target: β-synuclein fibrils (UniProt Q16143 1-134); test: dot blot
β-synuclein fibrils, sequence (Q16143 whole entry): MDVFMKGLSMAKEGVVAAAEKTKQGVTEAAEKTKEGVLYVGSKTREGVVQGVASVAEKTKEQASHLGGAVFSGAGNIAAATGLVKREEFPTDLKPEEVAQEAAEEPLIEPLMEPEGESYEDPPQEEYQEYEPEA

[6] = molecular target: β-synuclein monomers (UniProt Q16143 1-134); test: dot blot
β-synuclein monomers, sequence (Q16143 whole entry): as above

[7] = molecular target: γ-synuclein fibrils (UniProt O76070 1-127); test: dot blot
γ-synuclein fibrils, sequence (O76070 whole entry): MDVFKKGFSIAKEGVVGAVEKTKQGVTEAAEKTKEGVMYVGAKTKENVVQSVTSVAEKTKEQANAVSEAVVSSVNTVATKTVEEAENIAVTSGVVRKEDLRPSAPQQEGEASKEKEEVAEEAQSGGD

[8] = molecular target: γ-synuclein monomers (UniProt O76070 1-127); test: dot blot
γ-synuclein monomers, sequence (O76070 whole entry): as above

[9] = molecular target: T5, fibrils of NAC (61-95) (human); test: dot blot
T5 construct: also called NAC region (61-95) (F)

[10] = molecular target: T6, fibrils of NAC (61-78) (human); test: dot blot
T6 construct: also called NAC (61-78) (F)
T6 peptide: EQVTNVGGAVVTGVTAVA

[11] = molecular target: T7, α-synuclein peptide 1 (1-14) (human); test: pepscan ELISA
T7 construct: also called Peptide No. 1
T7 peptide: MDVFMKGLSKAKEG

[12] = molecular target: T8, α-synuclein peptide 2 (8-21) (human); test: pepscan ELISA
T8 construct: also called Peptide No. 2
T8 peptide: LSKAKEGVVAAAEK

[13] = molecular target: T9, α-synuclein peptide 3 (15-28) (human); test: pepscan ELISA
T9 construct: also called Peptide No. 3
T9 peptide: VVAAAEKTKQGVAE

[14] = molecular target: T10, α-synuclein peptide 6 (36-49) (human); test: pepscan ELISA
T10 construct: also called Peptide No. 6
T10 peptide: GVLYVGSKTKEGVV

[15] = molecular target: T11, α-synuclein peptide 7 (43-56) (human); test: pepscan ELISA
T11 construct: also called Peptide No. 7
T11 peptide: KTKEGVVHGVATVA

[16] = molecular target: T12, α-synuclein peptide 8 (50-63) (human); test: pepscan ELISA
T12 construct: also called Peptide No. 8
T12 peptide: HGVATVAEKTKEQV

[17] = molecular target: T13, α-synuclein peptide 9 (57-70) (human); test: pepscan ELISA
T13 construct: also called Peptide No. 9
T13 peptide: EKTKEQVTNVGGAV

[18] = molecular target: T14, α-synuclein peptide 10 (64-77) (human); test: pepscan ELISA
T14 construct: also called Peptide No. 10
T14 peptide: TNVGGAVVTGVTAV

[19] = molecular target: T15, α-synuclein peptide 11 (71-84) (human); test: pepscan ELISA
T15 construct: also called Peptide No. 11
T15 peptide: VTGVTAVAQKTVEG

[20] = molecular target: T16, α-synuclein peptide 12 (78-91) (human); test: pepscan ELISA
T16 construct: also called Peptide No. 12
T16 peptide: AQKTVEGAGSIAAA

[21] = molecular target: T17, α-synuclein peptide 13 (85-98) (human); test: pepscan ELISA
T17 construct: also called Peptide No. 13
T17 peptide: AGSIAAATGFVKKD

[22] = molecular target: T18, α-synuclein peptide 14 (92-105) (human); test: pepscan ELISA
T18 construct: also called Peptide No. 14
T18 peptide: TGFVKKDQLGKNEE

[23] = molecular target: T19, α-synuclein peptide 15 (99-112) (human); test: pepscan ELISA
T19 construct: also called Peptide No. 15
T19 peptide: QLGKNEEGAPQEGI

[24] = molecular target: T20, α-synuclein peptide 16 (106-119) (human); test: pepscan ELISA
T20 construct: also called Peptide No. 16
T20 peptide: GAPQEGILEDMPVD

[25] = molecular target: T21, α-synuclein peptide 17 (113-126) (human); test: pepscan ELISA
T21 construct: also called Peptide No. 17
T21 peptide: LEDMPVDPDNEAYE

[26] = molecular target: T22, α-synuclein peptide 18 (120-133) (human); test: pepscan ELISA
T22 construct: also called Peptide No. 18
T22 peptide: PDNEAYEMPSEEGY

B1: Syn-O1 (antibody, IgG2b, V domains shown)
VH: EVQLVESGGGLVQPKGSLKLSCAASGFTFNTYAMHWVRQAPGKGLEWVARIRSKSSNYATYYADSVKDRFTISRDDSQSMLYLQMNNLKTEDTAMYYCVRPLKWYFDVWGTGTTVTVSS
VL: QIVLTQSPAILSASPGEKVTMTCSASSTVNYMHWYQQKSGTSPKIWIYDTSKLASGVPARFSGSGSWTSYSLTISSMEAEDAATYYCQQWNSNPPTFGAGTKLELK
notes: also called mAb Syn-O1
B1: no binding (tested: 50 ng/ml antibody, 50 ng spotted) [1]; no binding (tested: 50 ng/ml antibody, 50 ng spotted) [2]; no binding (tested: 50 ng/ml antibody, 50 ng spotted) [3]. B1: no binding (tested: 50 ng/ml antibody, 50 ng spotted) [4]; no binding (tested: 50 ng spotted) [5]; no binding (tested: 50 ng spotted) [6]. B1: no binding (tested: 50 ng spotted) [7]; no binding (tested: 50 ng spotted) [8]; no binding (tested: 50 ng spotted) [9]. B1: no binding (tested: 50 ng spotted) [10]; no binding (tested: 100 ng/ml antibody, 500 ng/well peptide) [11]; no binding (tested: 100 ng/ml antibody, 500 ng/well peptide) [12]. B1: no binding (tested: 100 ng/ml antibody, 500 ng/well peptide) [13]; no binding (tested: 100 ng/ml antibody, 500 ng/well peptide) [14]; no binding (tested: 100 ng/ml antibody, 500 ng/well peptide) [15]. B1: no binding (tested: 100 ng/ml antibody, 500 ng/well peptide) [16]; no binding (tested: 100 ng/ml antibody, 500 ng/well peptide) [17]; no binding (tested: 100 ng/ml antibody, 500 ng/well peptide) [18]. B1: no binding (tested: 100 ng/ml antibody, 500 ng/well peptide) [19]; no binding (tested: 100 ng/ml antibody, 500 ng/well peptide) [20]; no binding (tested: 100 ng/ml antibody, 500 ng/well peptide) [21]. B1: no binding (tested: 100 ng/ml antibody, 500 ng/well peptide) [22]; no binding (tested: 100 ng/ml antibody, 500 ng/well peptide) [23]; no binding (tested: 100 ng/ml antibody, 500 ng/well peptide) [24]. B1: no binding (tested: 100 ng/ml antibody, 500 ng/well peptide) [25]; no binding (tested: 100 ng/ml antibody, 500 ng/well peptide) [26].

B2: Syn-F1 (antibody, V domains shown)
VH: DVQLVESGGDLVQPGGSRKLSCAASGFTFSSFGMHWVRQAPEKGLEWVAYINSGSSTIYYADTVKGRFTISRDNPKNTLFLQMTSLRSEDTAMYYCARGNNPGTGYYYSMDYWGQGTSVTVSS
VL: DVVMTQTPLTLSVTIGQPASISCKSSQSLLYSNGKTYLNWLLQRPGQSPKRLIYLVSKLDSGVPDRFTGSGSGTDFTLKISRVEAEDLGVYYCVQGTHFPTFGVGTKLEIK
notes: also called mAb Syn-F1
B2: no binding (tested: 50 ng/ml antibody, 50 ng spotted) [1]; no binding (tested: 50 ng/ml antibody, 50 ng spotted) [2]; no binding (tested: 50 ng/ml antibody, 50 ng spotted) [3]. B2: no binding (tested: 50 ng/ml antibody, 50 ng spotted) [4]; no binding (tested: 50 ng spotted) [5]; no binding (tested: 50 ng spotted) [6]. B2: no binding (tested: 50 ng spotted) [7]; no binding (tested: 50 ng spotted) [8]; no binding (tested: 50 ng spotted) [9]. B2: no binding (tested: 50 ng spotted) [10]; no binding (tested: 100 ng/ml antibody, 500 ng/well peptide) [11]; no binding (tested: 100 ng/ml antibody, 500 ng/well peptide) [12]. B2: no binding (tested: 100 ng/ml antibody, 500 ng/well peptide) [13]; no binding (tested: 100 ng/ml antibody, 500 ng/well peptide) [14]; no binding (tested: 100 ng/ml antibody, 500 ng/well peptide) [15]. B2: no binding (tested: 100 ng/ml antibody, 500 ng/well peptide) [16]; no binding (tested: 100 ng/ml antibody, 500 ng/well peptide) [17]; no binding (tested: 100 ng/ml antibody, 500 ng/well peptide) [18]. B2: no binding (tested: 100 ng/ml antibody, 500 ng/well peptide) [19]; no binding (tested: 100 ng/ml antibody, 500 ng/well peptide) [20]; no binding (tested: 100 ng/ml antibody, 500 ng/well peptide) [21]. B2: no binding (tested: 100 ng/ml antibody, 500 ng/well peptide) [22]; no binding (tested: 100 ng/ml antibody, 500 ng/well peptide) [23]; no binding (tested: 100 ng/ml antibody, 500 ng/well peptide) [24]. B2: no binding (tested: 100 ng/ml antibody, 500 ng/well peptide) [25]; no binding (tested: 100 ng/ml antibody, 500 ng/well peptide) [26].

B3: Syn-F2 (antibody, IgG2a, V domains shown)
VH: B2 VH with D10G, N52S, S109A
VL: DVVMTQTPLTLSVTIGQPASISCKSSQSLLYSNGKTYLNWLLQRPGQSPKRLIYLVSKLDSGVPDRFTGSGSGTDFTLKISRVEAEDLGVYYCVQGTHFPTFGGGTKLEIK
notes: also called mAb Syn-F2
B3: no binding (tested: 50 ng/ml antibody, 50 ng spotted) [1]; no binding (tested: 50 ng/ml antibody, 50 ng spotted) [2]; no binding (tested: 50 ng/ml antibody, 50 ng spotted) [3]. B3: no binding (tested: 50 ng/ml antibody, 50 ng spotted) [4]; no binding (tested: 50 ng spotted) [5]; no binding (tested: 50 ng spotted) [6]. B3: no binding (tested: 50 ng spotted) [7]; no binding (tested: 50 ng spotted) [8]; no binding (tested: 50 ng spotted) [9]. B3: no binding (tested: 50 ng spotted) [10]; no binding (tested: 100 ng/ml antibody, 500 ng/well peptide) [11]; no binding (tested: 100 ng/ml antibody, 500 ng/well peptide) [12]. B3: no binding (tested: 100 ng/ml antibody, 500 ng/well peptide) [13]; no binding (tested: 100 ng/ml antibody, 500 ng/well peptide) [14]; no binding (tested: 100 ng/ml antibody, 500 ng/well peptide) [15]. B3: no binding (tested: 100 ng/ml antibody, 500 ng/well peptide) [16]; no binding (tested: 100 ng/ml antibody, 500 ng/well peptide) [17]; no binding (tested: 100 ng/ml antibody, 500 ng/well peptide) [18]. B3: no binding (tested: 100 ng/ml antibody, 500 ng/well peptide) [19]; no binding (tested: 100 ng/ml antibody, 500 ng/well peptide) [20]; no binding (tested: 100 ng/ml antibody, 500 ng/well peptide) [21]. B3: no binding (tested: 100 ng/ml antibody, 500 ng/well peptide) [22]; no binding (tested: 100 ng/ml antibody, 500 ng/well peptide) [23]; no binding (tested: 100 ng/ml antibody, 500 ng/well peptide) [24]. B3: no binding (tested: 100 ng/ml antibody, 500 ng/well peptide) [25]; no binding (tested: 100 ng/ml antibody, 500 ng/well peptide) [26].

From patent publication US20140241984A1 (UNITED ARAB EMIRATES UNIVERSITY, published 2014)
